First the molecules themselves.
B1: anti-ROR1 antibody clone G6 (antibody, V domains shown)
VH: EVQLVESGGGVVQPGGSLRLSCAASGFTFDDYAMHWVRQAPGKGLEWVSLISGDGGSTYYADSVKGRFTISRDNAKNSLYLQMNSLRAEDTAVYYCARDNWNDVYYYYGMDVWGQGTTVTVSS
VL: DIQLTQSPSSLSASIGDTVTISCQASRDISDYLNWYQHKPGKAPKLLIYDASNLATGVPSRFSGSGSGTDFTLTIKSLQPEDVATYFCQQDDLLPLTFGGGTKVDIK
notes: Fully human clone from a naive phage library
B2: anti-ROR1 antibody clone C3 (antibody, V domains shown)
VH: QVQLQESGPGLVKPSETLSLTCTVSGGSISSYYWSWIRQLPGKGLEWIGYMHYSGSTSYNPSLKGRLTISVDTSTNQFSLKLGSVTAADTAVYYCARYYYHDSSGYYSYFDYWGQGTLVTVSS
VL: EIVLTQSPGTLSLSPGERATLSCRASQSVSSYLAWYQQKAGQAPRLLIYDASNRASGIPARFSGSGSGTDFTLTISSLEPEDFAVYYCQQRSNWPPTFGGGTKVEIK
notes: as for B1
B3: anti-ROR1 antibody clone G3 (antibody, V domains shown)
VH: QVQLQQWGAGLLKPSETLSLTCAVYGGSFSGYYWSWIRQPPGKGLEWIGEINHSGSTSYNPSLKSRVTISVDTSKNQFSLKLSSVTAADTAVYYCARGHSSGWYRRYFDLWGRGTLVTVSS
VL: EIVLTQSPATLSLSPGERATLSCRASQSVSSYLAWYQQKPGQAPRLLIYDASNRATGIPAKFSGSGSGTDFTLTISSLEPEDFAVYYCQQRSNWPPTFGGGTKVEIK
notes: as for B1

As usually defined, the Kd is the free concentration of one partner at which half of the binding sites on the other are occupied at equilibrium, for simple one-to-one binding. Lower therefore signals a tighter complex.

T1 sequence (Q01973 30-403 limits assumed): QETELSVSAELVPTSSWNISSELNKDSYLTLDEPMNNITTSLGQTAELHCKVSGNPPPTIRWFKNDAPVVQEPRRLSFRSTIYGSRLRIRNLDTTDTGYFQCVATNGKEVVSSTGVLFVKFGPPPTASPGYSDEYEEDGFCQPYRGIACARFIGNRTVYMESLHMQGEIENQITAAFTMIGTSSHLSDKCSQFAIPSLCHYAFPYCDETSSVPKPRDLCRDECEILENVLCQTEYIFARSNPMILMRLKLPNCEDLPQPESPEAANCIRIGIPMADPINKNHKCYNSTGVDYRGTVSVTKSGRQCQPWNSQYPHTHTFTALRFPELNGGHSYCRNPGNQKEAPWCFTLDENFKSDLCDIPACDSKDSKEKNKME

This test addresses T1, human ROR1 (human, UniProt Q01973 30-403, limits assumed).
T1 construct: also called receptor tyrosine kinase-like orphan receptor 1
Put plainly: affinity for human ROR1, method not stated.
Consider B1, for which the Kd came out at 43.7 nM. This lies in the double-digit nanomolar range.

For B2, the affinity, expressed as Kd, was 3.25 nM.

B3 displayed a Kd of 4.48 nM.
